From publication PMC8310136

Biological target: NT*MNV VPg (Murine norovirus (MNV), UniProt Q80J95 871-994)
Experiment: competition; 100-fold excess over labelled PP9 RNA
Settings: protein: recombinant, tags: N-terminal His6-StrepII-spidroin NT*-enterokinase site-GGSRS linker, label: none

Binder	binding result	binding result (blunt)
ssDNA competitor (ssDNA) DNA: TATGCGGGCGAAACTTCTGGGAATAGTCCTGACAACCCCTATTGCGATCAGCTCTTTTGCTAGCTCG	no binding	–
dsDNA competitor (dsDNA) DNA 1: TATGCGGGCGAAACTTCTGGGAATAGTCCTGACAACCCCTATTGCGATCAGCTCTTTTGCTAGCTCG DNA 2: CGAGCTAGCAAAAGAGCTGATCGCAATAGGGGTTGTCAGGACTATTCCCAGAAGTTTCGCCCGCATA	–	no binding
